Results on one protein are retold here after article doi:10.1101/2021.02.26.433003 (bioRxiv, 2021).

The data set concerns the molecule itself. The data set can be described thus: dynamic light scattering + fluorescence microscopy.

B1: Dhh1^48-425 (domain or fragment, yeast, UniProt P39517 48-425, looked up)
chain: FEDFYLKRELLMGIFEAGFEKPSPIQEEAIPVAITGRDILARAKNGTGKTAAFVIPTLEKVKPKLNKIQALIMVPTRELALQTSQVVRTLGKHCGISCMVTTGGTNLRDDILRLNETVHILVGTPGRVLDLASRKVADLSDCSLFIMDEADKMLSRDFKTIIEQILSFLPPTHQSLLFSATFPLTVKEFMVKHLHKPYEINLMEELTLKGITQYYAFVEERQKLHCLNTLFSKLQINQAIIFCNSTNRVELLAKKITDLGYSCYYSHARMKQQERNKVFHEFRQGKVRTLVCSDLLTRGIDIQAVNVVINFDFPKTAETYLHRIGRSGRFGHLGLAINLINWNDRFNLYKIEQELGTEIAAIPATIDKSLYVAENDET
Take B1: the binding result is listed as “binds”.
